Measurements from patent publication US20200299347A1.

Target: FGFR3
Experiment: cell-based or functional assay

“sprifermin (rhFGF18) (from UniProt O76093 28-196) (ligand)” gave an FGF18 EC50 (nM), BaF3/FGFR3 cell proliferation (ATP) assay of 0.02 nM.
